Experimental data: US6833192B1, “Encapsulation of crystals via multilayer coatings” (Max-Planck Gesellschaft Zur Forderrung der Wissenschaften …, priority 1999, dated 2004)

Tests used:
[1] = Determination of catalase activity (decomposition of H2O2 at 240 nm); type: biochemical; conditions: after solubilization and release from the polymer capsules; uncoated catalase measured the same way for comparison
Protocol: The enzyme was released from the polymer capsules by exposure to ultrasound for 5 min at 20° C. in 1 M phosphate buffer at pH 7 (this caused rupturing of the polymer walls). The catalase activity was determined using a standard enzyme activity assay (Biochemica Information, 15-16 Boehringer Mannheim (1987); Tijsen, Practice and Theory of Enzyme Immunoassays, 8th Impression (1993), Elsevier, 202-203): that is, by measuring the decomposition of the substrate hydrogen peroxide (H2O2) at 240 nm. The concentration of the catalase was determined spectrophotometrically at 280 nm and 405 nm (soret band). The specific acitvity of the uncoated catalase was measured in the same way and used for comparison.

[2] = Electrophoretic mobility / Zeta-potential measurement; type: physicochemical; conditions: water at pH 5; by electrophoretic mobility
Protocol: Electrophoretic mobilities of the uncoated and polymer-multilayer coated enzyme crystals were measured using a Malvern Zetasizer 4 as described elsewhere (Caruso et al., J. Phys. Chem. B 102, 2011-2116 (1998); Sukhorukov, G. B. et al., Polym. Adv. Technol. 9, 759-767 (1998); Donath et al., Angew. Chem. Int. Ed. 37, 2201-2205 (1998). The mobility u was converted into a ξ-potential using the Smoluchowski relation ξ=uη/ε, where η and ε are the viscosity and permittivity of the solution, respectively. Atomic force microscopy (AFM) images were obtained using a Digital Instruments Nanoscope IIIa AFM in tapping mode (TM) on samples deposited onto cleaned glass slides and air-dried. Samples for transmission electron microscopy (TEM) were prepared by deposition of aqueous solutions of the hollow polymer capsules upon a carbon-coated copper grid, allowing them to air dry for one minute, and then blotting off the extra solution.

[3] = tested on: protease (Streptomyces griseus); experiment: Proteolysis experiment (decrease in catalase enzyme activity on protease incubation); type: biochemical; conditions: incubation time of 100 min, 37° C., pH 7; starting activity normalized to 100%
Protocol: 10 mg of protease (Streptomyces griseus; Sigma P6911; activity=5.2 U/mg solid) was dissolved in 500 μl of phosphate buffered saline (PBS, pH 7.0)(100 U/ml) and used as the stock solution. 200 μl samples of the polyelectrolyte-coated catalase and solubilized catalase where separately incubated in a water bath at 37° C. with either 30 μl of the stock protease solution of 30 μl of PBS (control experiment). The starting activity of the catalase for all samples was approximately 12000 U/ml catalase. The starting activities were normalized to 100%. The final protease activity in the sample was […]. Proteolysis of the catalase was determined by measuring the decrease in the catalase enzyme activity. The catalase activity measurements where carried out according to the previously described method (i.e. by spectrophotometric detection (240 nm) of the decomposition of hydrogen peroxide, see Tijsen, Practice and Theory of Enzyme Immunoassays, Elsevier, 8th Impression (1993), pp. 202-203.15). 5 μl samples were diluted and used for the activity measurements.

B1: catalase (protein, UniProt P00432 2-527, looked up)
Catalase: ADNRDPASDQMKHWKEQRAAQKPDVLTTGGGNPVGDKLNSLTVGPRGPLLVQDVVFTDEMAHFDRERIPERVVHAKGAGAFGYFEVTHDITRYSKAKVFEHIGKRTPIAVRFSTVAGESGSADTVRDPRGFAVKFYTEDGNWDLVGNNTPIFFIRDALLFPSFIHSQKRNPQTHLKDPDMVWDFWSLRPESLHQVSFLFSDRGIPDGHRHMNGYGSHTFKLVNANGEAVYCKFHYKTDQGIKNLSVEDAARLAHEDPDYGLRDLFNAIATGNYPSWTLYIQVMTFSEAEIFPFNPFDLTKVWPHGDYPLIPVGKLVLNRNPVNYFAEVEQLAFDPSNMPPGIEPSPDKMLQGRLFAYPDTHRHRLGPNYLQIPVNCPYRARVANYQRDGPMCMMDNQGGAPNYYPNSFSAPEHQPSALEHRTHFSGDVQRFNSANDDNVTQVRTFYLKVLNEEQRKRLCENIAGHLKDAQLFIQKKAVKNFSDVHPEYGSRIQALLDKYNEEKPKNAVHTYVQHGSHLSAREKANL
modifications: crystals
notes: catalase enzyme crystals (Sigma, C-100), uncoated template and comparison
[1]
  recovered specific activity: 100%
[2]
  Zeta potential (surface charge): +20 mV
[3]
  inactivation by protease: > 90%
